Results: US20110318347A1

Legend:
human CXCR4 (human) [1] = target: human CXCR4 (human)
CCR5 = CCR5 (UniProt P51681); assay: cell-based or functional assay
human CXCR4 (human) [2] = assay: cell-based or functional assay
human CXCR4 (human) [3] = assay: competition with [125I]-238D2 on HEK293T-CXCR4 membranes
human CXCR4 (human) [4] = assay: competition with [125I]-238D4 on HEK293T-CXCR4 membranes
human CXCR4 (human) [5] = assay: competition with [125I]-CXCL12 on HEK293T-CXCR4 membranes
human CXCR4 (human) [6] = assay: competition vs [125I]-238D2 (3 nM), membranes of HEK293T cells expressing CXCR4
human CXCR4 (human) [7] = assay: competition vs [125I]-238D4 (3 nM), membranes of HEK293T cells expressing CXCR4
human CXCR4 (human) [8] = assay: competition vs [125I]-CXCL12 (40 pM), membranes of HEK293T cells expressing CXCR4
human CXCR4 (human) [9] = assay: periplasmic fraction (1:10), displacement of [125I]-CXCL12, HEK293T-CXCR4 membranes; - = 0-29%, + = 30-69%, ++ = 70-100%

CCR5, sequence (P51681 whole entry): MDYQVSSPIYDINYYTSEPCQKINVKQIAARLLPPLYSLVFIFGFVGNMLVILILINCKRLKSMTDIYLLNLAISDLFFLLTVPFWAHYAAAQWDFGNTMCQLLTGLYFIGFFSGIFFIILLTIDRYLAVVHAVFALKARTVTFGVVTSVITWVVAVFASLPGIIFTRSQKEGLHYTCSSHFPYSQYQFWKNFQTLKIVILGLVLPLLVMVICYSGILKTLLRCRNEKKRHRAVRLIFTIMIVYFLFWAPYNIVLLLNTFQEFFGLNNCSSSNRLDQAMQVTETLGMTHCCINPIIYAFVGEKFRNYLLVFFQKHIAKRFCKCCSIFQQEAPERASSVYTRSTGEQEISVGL

B1: Nanobody 238D4 (VHH, from a related filing, part only)
VHH: EVQLMESGGGLVQAGGSLRLSCAASGRTFNNYAMGWFRRAPGKEREFVAAITRSGVRSGVSAIYGDSVKDRFTISRDNAKNTLYLQMNSLKPEDTAVYTCAASAIGSGALRRFEYDYSGQGTQVTVSS
Work on B1 yielded an IC50 (read off the curve), migration of Jurkat cells towards 0.3 nM CXCL12 (human CXCR4 (human) [1]) of 9 nM, an Anti-HIV-1 activity (in nM), PBMC/BaL (CCR5) of over 100 nM and an Anti-HIV-1 activity (in nM), U87.CD4.CCR5/BaL (CCR5) of over 500 nM. It also gave an IC50, HIV-1 BaL, PBMC donor 1 (CCR5) of over 1 µg/mL, an IC50, HIV-1 BaL, PBMC donor 2 (CCR5) of over 1 µg/mL and an IC90, HIV-1 BaL, PBMC donor 1 (CCR5) of over 1 µg/mL. It also gave an IC90, HIV-1 BaL, PBMC donor 2 (CCR5) of over 1 µg/mL, a nM IC50, HIV-1 BAL, PBMC donor 1 (CCR5) of over 67 nM and a nM IC50, HIV-1 BAL, PBMC donor 2 (CCR5) of over 67 nM. It also gave an Anti-HIV-1 activity (in nM), MT-4/HE (human CXCR4 (human) [2]) of 82 nM, an Anti-HIV-1 activity (in nM), MT-4/NL4.3 (human CXCR4 (human) [2]) of 40.3 nM and an Anti-HIV-1 activity (in nM), PBMC/HE (human CXCR4 (human) [2]) of 13.6 nM. For the same binder, the Anti-HIV-1 activity (in nM), PBMC/NL4.3 (human CXCR4 (human) [2]) was 13.7 nM, the Anti-HIV-1 activity (in nM), U87.CD4.CXCR4/NL4.3 (human CXCR4 (human) [2]) was 107 nM and the CRE activation, HEK293T-CXCR4-CREbgal/0.01-100 nM CXCL12, Imax (%) (human CXCR4 (human) [2]) was 90%. It also gave a CRE activation, HEK293T-CXCR4-CREbgal/0.01-100 nM CXCL12, pKi or pIC50 (pKB by the text) (human CXCR4 (human) [2]) of 7.7, a Chemotaxis, Jurkat/0.3 nM CXCL12, Imax (%) (human CXCR4 (human) [2]) of 101% and a Chemotaxis, Jurkat/0.3 nM CXCL12, pKi or pIC50 (human CXCR4 (human) [2]) of 8.31. For the same binder, the IC50, HIV-1 NL4.3, MT-4 cells, exp. 1 (human CXCR4 (human) [2]) was 0.833 µg/mL, the IC50, HIV-1 NL4.3, PBMC donor 1 (human CXCR4 (human) [2]) was over 1 µg/mL and the IC50, HIV-1 NL4.3, PBMC donor 2 (human CXCR4 (human) [2]) was 0.551 µg/mL. For the same binder, the IC50, HIV-1 UG270, PBMC donor 1 (human CXCR4 (human) [2]) was over 1 µg/mL, the IC50, HIV-1 UG270, PBMC donor 2 (human CXCR4 (human) [2]) was over 1 µg/mL and the IC90, HIV-1 NL4.3, MT-4 cells, exp. 1 (human CXCR4 (human) [2]) was over 1 µg/mL. The IC90, HIV-1 NL4.3, PBMC donor 1 (human CXCR4 (human) [2]) was over 1 µg/mL, the IC90, HIV-1 NL4.3, PBMC donor 2 (human CXCR4 (human) [2]) was over 1 µg/mL and the IC90, HIV-1 UG270, PBMC donor 1 (human CXCR4 (human) [2]) was over 1 µg/mL. It also gave an IC90, HIV-1 UG270, PBMC donor 2 (human CXCR4 (human) [2]) of over 1 µg/mL, an IP accumulation, HEK293T-CXCR4-Gαqi5/30 nM CXCL12, Imax (%) (human CXCR4 (human) [2]) of 90% and an IP accumulation, HEK293T-CXCR4-Gαqi5/30 nM CXCL12, pKi or pIC50 (human CXCR4 (human) [2]) of 8.39. For the same binder, the nM IC50, HIV-1 NL4.3, PBMC donor 1 (human CXCR4 (human) [2]) was over 67 nM, the nM IC50, HIV-1 NL4.3, PBMC donor 2 (human CXCR4 (human) [2]) was 36.7 nM and the nM IC50, HIV-1 UG270, PBMC donor 1 (human CXCR4 (human) [2]) was over 67 nM. The nM IC50, HIV-1 UG270, PBMC donor 2 (human CXCR4 (human) [2]) was over 67 nM, the IC50 (read off the curve) (human CXCR4 (human) [3]) was 3 nM and the IC50 (read off the curve) (human CXCR4 (human) [4]) was 4 nM. For the same binder, the IC50 (read off the curve) (human CXCR4 (human) [5]) was 10 nM, the Displacem. (%) (human CXCR4 (human) [6]) was 101% and the pKi (human CXCR4 (human) [6]) was 8.8. For the same binder, the Displacem. (%) (human CXCR4 (human) [7]) was 103%, the pKi (human CXCR4 (human) [7]) was 8.55 and the Displacem. (%) (human CXCR4 (human) [8]) was 99%. The pKi (human CXCR4 (human) [8]) was 8.22 and the percent inhibition of specific [125I]-CXCL12 binding (human CXCR4 (human) [9]) was 70 to 100%.
